The numbers were not newly measured in article PMC13142048, which cites them from elsewhere.

For data set [1], the target named is CD226 (DNAM-1) (Homo sapiens) (UniProt Q15762).
Data set [2] concerns the target CD96 (TACTILE) (Homo sapiens) (UniProt P40200).
Data set [3] concerns the target TIGIT (Homo sapiens) (UniProt Q495A1).
UniProt Q495A1, sequence (Q495A1 22-141): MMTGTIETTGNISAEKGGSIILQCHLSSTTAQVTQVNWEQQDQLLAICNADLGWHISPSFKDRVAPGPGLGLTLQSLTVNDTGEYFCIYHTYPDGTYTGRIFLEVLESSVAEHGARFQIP

UniProt Q15762, sequence (Q15762 19-254): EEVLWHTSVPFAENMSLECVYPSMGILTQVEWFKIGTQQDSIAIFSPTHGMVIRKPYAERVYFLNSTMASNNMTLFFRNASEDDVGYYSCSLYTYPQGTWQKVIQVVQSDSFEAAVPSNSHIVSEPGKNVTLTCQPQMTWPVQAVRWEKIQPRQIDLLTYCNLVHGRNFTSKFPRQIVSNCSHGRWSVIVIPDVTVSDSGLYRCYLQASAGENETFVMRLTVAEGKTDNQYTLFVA
UniProt P40200, sequence (P40200 22-519): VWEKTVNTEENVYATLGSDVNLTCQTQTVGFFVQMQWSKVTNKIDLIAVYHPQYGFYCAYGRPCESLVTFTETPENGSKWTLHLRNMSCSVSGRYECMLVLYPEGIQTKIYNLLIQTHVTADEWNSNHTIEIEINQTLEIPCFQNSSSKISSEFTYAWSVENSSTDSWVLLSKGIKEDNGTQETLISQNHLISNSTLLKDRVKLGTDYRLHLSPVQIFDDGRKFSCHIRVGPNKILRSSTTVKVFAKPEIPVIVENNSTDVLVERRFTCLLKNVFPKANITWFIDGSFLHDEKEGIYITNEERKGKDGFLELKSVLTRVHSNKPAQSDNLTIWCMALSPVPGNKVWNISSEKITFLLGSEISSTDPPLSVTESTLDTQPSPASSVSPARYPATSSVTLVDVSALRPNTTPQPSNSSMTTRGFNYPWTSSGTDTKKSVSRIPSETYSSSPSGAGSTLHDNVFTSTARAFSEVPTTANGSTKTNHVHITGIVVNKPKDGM

As for CD155 (from UniProt P15151), the results for the equilibrium dissociation constant (Kd) in data set [1], in data set [2] and in data set [3] were 119 nM, 37.6 nM and 3.15 nM, respectively.

The term Kd denotes a measure of binding affinity in units of concentration.
